58 sequences from the supplement of paper PMC9428881 can be followed below.

± gives the standard error.

The nature of the data set: background-corrected fluorescence of 3'-dye-labeled ssDNA relative to brightest sequence (3'-GCGCG) (fraction); higher = brighter dye fluorescence (less quenching). In short, it runs like this: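 Single-stranded DNA was built on glass slides by light-directed phosphoramidite synthesis, ending in a 3' Cy3 or Cy5 dye beside each of 1024 permuted pentamers. Arrays were washed in acetonitrile for 2 h at r.t., then scanned at 532 or 635 nm before and after overnight ethylenediamine/ethanol deprotection. Each value averages 10 features per array and at least 3 syntheses. Fluorescence, corrected by subtracting unlabeled-oligo background, is scaled to the brightest sequence.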

For “TTTTTTGAGCATGCTGATGATTTTTTTTTTTTTTTCTACC [CCATC]”, the background-corrected fluorescence is, setting by setting: (dye: Cy3 (3' terminal)) 0.375 ± 0.032; (dye: Cy5 (3' terminal)) 0.284 ± 0.016.
Sequence “TTTTTTGAGCATGCTGATGCTTTTTTTTTTTTTTTCTACA [ACATC]” yielded a background-corrected fluorescence (dye: Cy3 (3' terminal)) of 0.498 ± 0.043 and a background-corrected fluorescence (dye: Cy5 (3' terminal)) of 0.364 ± 0.024.
For “TTTTTTGAGCATGCTGCGCATTTTTTTTTTTTTTTCTAAT [TAATC]” the same measures were 0.542 ± 0.015 and 0.394 ± 0.027.
For “TTTTTTGAGCATGCTGCTCATTTTTTTTTTTTTTTCTAAG [GAATC]” the same measures were 0.542 ± 0.044 and 0.427 ± 0.031.
The like results for “TTTTTTGAGCATGCTGCTGATTTTTTTTTTTTTTTCTAAC [CAATC]” were, in that order, 0.407 ± 0.026 and 0.316 ± 0.032.
On to “TTTTTTGAGCATGCTGCTGCTTTTTTTTTTTTTTTCTAAA [AAATC]”, for which the background-corrected fluorescence (dye: Cy3 (3' terminal)) was 0.569 ± 0.008 and the background-corrected fluorescence (dye: Cy5 (3' terminal)) came to 0.457 ± 0.021.
For “TTTTTTGATCAGCAGCAGCATTTTTTTTTTTTTTTCGTTT [TTTGC]” the same measures were 0.528 ± 0.017 and 0.393 ± 0.026.
For “TTTTTTGATCAGCAGCATCATTTTTTTTTTTTTTTCGTTG [GTTGC]” the same measures were 0.533 ± 0.023 and 0.422 ± 0.051.
For “TTTTTTGATCAGCAGCATGATTTTTTTTTTTTTTTCGTTC [CTTGC]” the same measures were 0.417 ± 0.036 and 0.321 ± 0.028.
Turning to “TTTTTTGATCAGCAGCATGCTTTTTTTTTTTTTTTCGTTA [ATTGC]”, the background-corrected fluorescence reads like this: (dye: Cy3 (3' terminal)) 0.561 ± 0.012; (dye: Cy5 (3' terminal)) 0.398 ± 0.052.
The like results for “TTTTTTGATCAGCATCAGCATTTTTTTTTTTTTTTCGTGT [TGTGC]” were, in that order, 0.571 ± 0.022 and 0.466 ± 0.037.
The like results for “TTTTTTGATCAGCATCATCATTTTTTTTTTTTTTTCGTGG [GGTGC]” were, in that order, 0.622 ± 0.021 and 0.483 ± 0.033.
Regarding “TTTTTTGATCAGCATCATGATTTTTTTTTTTTTTTCGTGC”, the background-corrected fluorescence is 0.504 ± 0.033 (dye: Cy3 (3' terminal)) and 0.397 ± 0.027 (dye: Cy5 (3' terminal)).
The like results for “TTTTTTGATCAGCATCATGCTTTTTTTTTTTTTTTCGTGA [AGTGC]” were, in that order, 0.634 ± 0.016 and 0.531 ± 0.037.
For “TTTTTTGATCAGCATGAGCATTTTTTTTTTTTTTTCGTCT [TCTGC]” the same measures were 0.485 ± 0.02 and 0.36 ± 0.015.
For “TTTTTTGATCAGCATGATCATTTTTTTTTTTTTTTCGTCG [GCTGC]” the same measures were 0.609 ± 0.03 and 0.463 ± 0.024.
Regarding “TTTTTTGATCAGCATGATGATTTTTTTTTTTTTTTCGTCC [CCTGC]”, the background-corrected fluorescence reads like this: (dye: Cy3 (3' terminal)) 0.4 ± 0.0041; (dye: Cy5 (3' terminal)) 0.315 ± 0.021.
For “TTTTTTGATCAGCATGATGCTTTTTTTTTTTTTTTCGTCA [ACTGC]” the same measures were 0.547 ± 0.03 and 0.378 ± 0.032.
The like results for “TTTTTTGATCAGCATGCGCATTTTTTTTTTTTTTTCGTAT [TATGC]” were, in that order, 0.555 ± 0.018 and 0.401 ± 0.064.
For “TTTTTTGATCAGCATGCTCATTTTTTTTTTTTTTTCGTAG [GATGC]” the same measures were 0.615 ± 0.024 and 0.435 ± 0.03.
Sequence “TTTTTTGATCAGCATGCTGATTTTTTTTTTTTTTTCGTAC” gave a background-corrected fluorescence (dye: Cy3 (3' terminal)) of 0.49 ± 0.01 and a background-corrected fluorescence (dye: Cy5 (3' terminal)) of 0.376 ± 0.053.
Sequence “TTTTTTGATCAGCATGCTGCTTTTTTTTTTTTTTTCGTAA [AATGC]” displayed a background-corrected fluorescence (dye: Cy3 (3' terminal)) of 0.553 ± 0.045 and a background-corrected fluorescence (dye: Cy5 (3' terminal)) of 0.428 ± 0.024.
For the sequence “TTTTTTGATCATCAGCAGCATTTTTTTTTTTTTTTCGGTT [TTGGC]”, the background-corrected fluorescence (dye: Cy3 (3' terminal)) came to 0.545 ± 0.0074 and the background-corrected fluorescence (dye: Cy5 (3' terminal)) came to 0.427 ± 0.024.
“TTTTTTGATCATCAGCATCATTTTTTTTTTTTTTTCGGTG [GTGGC]”: the background-corrected fluorescence by setting is: (dye: Cy3 (3' terminal)) 0.574 ± 0.02; (dye: Cy5 (3' terminal)) 0.484 ± 0.031.
Regarding “TTTTTTGATCATCAGCATGATTTTTTTTTTTTTTTCGGTC [CTGGC]”, the background-corrected fluorescence by setting is: (dye: Cy3 (3' terminal)) 0.506 ± 0.035; (dye: Cy5 (3' terminal)) 0.407 ± 0.042.
The like results for “TTTTTTGATCATCAGCATGCTTTTTTTTTTTTTTTCGGTA [ATGGC]” were, in that order, 0.589 ± 0.071 and 0.488 ± 0.029.
The like results for “TTTTTTGATCATCATCAGCATTTTTTTTTTTTTTTCGGGT [TGGGC]” were, in that order, 0.7 ± 0.013 and 0.616 ± 0.068.
For the sequence “TTTTTTGATCATCATCATCATTTTTTTTTTTTTTTCGGGG [GGGGC]”, the background-corrected fluorescence turned out to be 0.673 ± 0.024 (dye: Cy3 (3' terminal)) and 0.65 ± 0.044 (dye: Cy5 (3' terminal)).
Turning to “TTTTTTGATCATCATCATGATTTTTTTTTTTTTTTCGGGC”, the background-corrected fluorescence reads like this: (dye: Cy3 (3' terminal)) 0.576 ± 0.032; (dye: Cy5 (3' terminal)) 0.487 ± 0.024.
The like results for “TTTTTTGATCATCATCATGCTTTTTTTTTTTTTTTCGGGA [AGGGC]” were, in that order, 0.7 ± 0.0078 and 0.715 ± 0.052.
The like results for “TTTTTTGATCATCATGAGCATTTTTTTTTTTTTTTCGGCT” were, in that order, 0.583 ± 0.016 and 0.431 ± 0.021.
The like results for “TTTTTTGATCATCATGATCATTTTTTTTTTTTTTTCGGCG [GCGGC]” were, in that order, 0.704 ± 0.027 and 0.611 ± 0.053.
Turning to “TTTTTTGATCATCATGATGATTTTTTTTTTTTTTTCGGCC [CCGGC]”, the background-corrected fluorescence (dye: Cy3 (3' terminal)) stood at 0.465 ± 0.022 and the background-corrected fluorescence (dye: Cy5 (3' terminal)) worked out at 0.364 ± 0.027.
“TTTTTTGATCATCATGATGCTTTTTTTTTTTTTTTCGGCA [ACGGC]”: the background-corrected fluorescence (dye: Cy3 (3' terminal)) was 0.612 ± 0.015 and the background-corrected fluorescence (dye: Cy5 (3' terminal)) stood at 0.493 ± 0.034.
Take “TTTTTTGATCATCATGCGCATTTTTTTTTTTTTTTCGGAT [TAGGC]”: the background-corrected fluorescence is, setting by setting: (dye: Cy3 (3' terminal)) 0.593 ± 0.017; (dye: Cy5 (3' terminal)) 0.472 ± 0.033.
For “TTTTTTGATCATCATGCTCATTTTTTTTTTTTTTTCGGAG [GAGGC]” the same measures were 0.603 ± 0.02 and 0.487 ± 0.024.
The like results for “TTTTTTGATCATCATGCTGATTTTTTTTTTTTTTTCGGAC [CAGGC]” were, in that order, 0.531 ± 0.011 and 0.389 ± 0.034.
For “TTTTTTGATCATCATGCTGCTTTTTTTTTTTTTTTCGGAA [AAGGC]” the same measures were 0.656 ± 0.032 and 0.548 ± 0.058.
Take “TTTTTTGATCATGAGCAGCATTTTTTTTTTTTTTTCGCTT”: the background-corrected fluorescence runs as follows: (dye: Cy3 (3' terminal)) 0.51 ± 0.017; (dye: Cy5 (3' terminal)) 0.409 ± 0.047.
The like results for “TTTTTTGATCATGAGCATCATTTTTTTTTTTTTTTCGCTG [GTCGC]” were, in that order, 0.534 ± 0.014 and 0.423 ± 0.043.
As to “TTTTTTGATCATGAGCATGATTTTTTTTTTTTTTTCGCTC [CTCGC]”, the background-corrected fluorescence runs as follows: (dye: Cy3 (3' terminal)) 0.452 ± 0.039; (dye: Cy5 (3' terminal)) 0.318 ± 0.024.
With “TTTTTTGATCATGAGCATGCTTTTTTTTTTTTTTTCGCTA [ATCGC]”, the background-corrected fluorescence is 0.549 ± 0.026 (dye: Cy3 (3' terminal)) and 0.399 ± 0.027 (dye: Cy5 (3' terminal)).
The like results for “TTTTTTGATCATGATCAGCATTTTTTTTTTTTTTTCGCGT [TGCGC]” were, in that order, 0.783 ± 0.029 and 0.697 ± 0.048.
For “TTTTTTGATCATGATCATCATTTTTTTTTTTTTTTCGCGG [GGCGC]” the same measures were 0.814 ± 0.019 and 0.793 ± 0.047.
The like results for “TTTTTTGATCATGATCATGATTTTTTTTTTTTTTTCGCGC” were, in that order, 0.759 ± 0.032 and 0.66 ± 0.052.
With “TTTTTTGATCATGATCATGCTTTTTTTTTTTTTTTCGCGA [AGCGC]”, the background-corrected fluorescence reads like this: (dye: Cy3 (3' terminal)) 0.823 ± 0.027; (dye: Cy5 (3' terminal)) 0.792 ± 0.034.
The like results for “TTTTTTGATCATGATGAGCATTTTTTTTTTTTTTTCGCCT [TCCGC]” were, in that order, 0.488 ± 0.028 and 0.369 ± 0.03.
For “TTTTTTGATCATGATGATCATTTTTTTTTTTTTTTCGCCG [GCCGC]” the same measures were 0.647 ± 0.017 and 0.506 ± 0.046.
The like results for “TTTTTTGATCATGATGATGATTTTTTTTTTTTTTTCGCCC [CCCGC]” were, in that order, 0.406 ± 0.032 and 0.308 ± 0.055.
In the case of “TTTTTTGATCATGATGATGCTTTTTTTTTTTTTTTCGCCA [ACCGC]”, the background-corrected fluorescence reads like this: (dye: Cy3 (3' terminal)) 0.49 ± 0.03; (dye: Cy5 (3' terminal)) 0.423 ± 0.051.
The like results for “TTTTTTGATCATGATGCGCATTTTTTTTTTTTTTTCGCAT [TACGC]” were, in that order, 0.517 ± 0.0084 and 0.395 ± 0.021.
The like results for “TTTTTTGATCATGATGCTCATTTTTTTTTTTTTTTCGCAG [GACGC]” were, in that order, 0.595 ± 0.025 and 0.446 ± 0.029.
The like results for “TTTTTTGATCATGATGCTGATTTTTTTTTTTTTTTCGCAC [CACGC]” were, in that order, 0.435 ± 0.025 and 0.342 ± 0.06.
In the case of “TTTTTTGATCATGATGCTGCTTTTTTTTTTTTTTTCGCAA [AACGC]”, the background-corrected fluorescence reads like this: (dye: Cy3 (3' terminal)) 0.552 ± 0.031; (dye: Cy5 (3' terminal)) 0.443 ± 0.035.
For “TTTTTTGATCATGCGCAGCATTTTTTTTTTTTTTTCGATT [TTAGC]” the same measures were 0.602 ± 0.031 and 0.404 ± 0.025.
The like results for “TTTTTTGATCATGCGCATCATTTTTTTTTTTTTTTCGATG [GTAGC]” were, in that order, 0.552 ± 0.021 and 0.438 ± 0.024.
The like results for “TTTTTTGATCATGCGCATGATTTTTTTTTTTTTTTCGATC [CTAGC]” were, in that order, 0.457 ± 0.018 and 0.354 ± 0.027.
“TTTTTTGATCATGCGCATGCTTTTTTTTTTTTTTTCGATA [ATAGC]” showed a background-corrected fluorescence (dye: Cy3 (3' terminal)) of 0.595 ± 0.036 and a background-corrected fluorescence (dye: Cy5 (3' terminal)) of 0.427 ± 0.025.
